Assay results taken from patent publication US20220106406A1 (UNIVERSITY OF KENTUCKY RESEARCH FOUNDATION, published 2022).

T1: 3×FLAG-PRL-1 (human, UniProt Q93096 1-170)
T1 construct: Expressed in HEK293T cells, tested in cell lysate; Order of tag and PRL follows the printed name only; also called 3xFLAG-PRL-1; not shown: 3×FLAG tag from p3×FLAG-CMV-14
T1 sequence (looked up): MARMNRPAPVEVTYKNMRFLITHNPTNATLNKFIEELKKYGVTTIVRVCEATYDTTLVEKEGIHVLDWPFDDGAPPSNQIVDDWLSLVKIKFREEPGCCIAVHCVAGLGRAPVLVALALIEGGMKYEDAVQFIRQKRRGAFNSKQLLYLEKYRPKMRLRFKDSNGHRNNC

T2: 3×FLAG-PRL-2 (human, UniProt Q12974 1-164)
T2 construct: Expressed in HEK293T cells, tested in cell lysate; Order of tag and PRL follows the printed name only; also called 3xFLAG-PRL-2; not shown: 3×FLAG tag from p3×FLAG-CMV-14
T2 sequence (looked up): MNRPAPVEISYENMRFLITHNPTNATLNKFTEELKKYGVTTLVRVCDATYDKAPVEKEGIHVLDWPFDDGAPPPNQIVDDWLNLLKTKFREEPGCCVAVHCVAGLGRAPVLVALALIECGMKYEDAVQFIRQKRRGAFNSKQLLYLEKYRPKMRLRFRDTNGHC

T3: GFP-PRL-2 (UniProt Q12974 1-164)
T3 construct: Expressed in HCT116 cells, fixed and permeabilized for immunofluorescence; also called CMV:GFP-PRL-2
T3 sequence (looked up): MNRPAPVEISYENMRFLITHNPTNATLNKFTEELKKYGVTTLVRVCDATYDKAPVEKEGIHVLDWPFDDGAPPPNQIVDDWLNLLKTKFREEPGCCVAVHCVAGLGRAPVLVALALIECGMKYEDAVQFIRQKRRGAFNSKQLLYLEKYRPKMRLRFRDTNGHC

T4: GFP-PRL-1 (UniProt Q93096 1-170)
T4 construct: Expressed in HCT116 cells, fixed and permeabilized for immunofluorescence; also called CMV:GFP-PRL-1
T4 sequence (looked up): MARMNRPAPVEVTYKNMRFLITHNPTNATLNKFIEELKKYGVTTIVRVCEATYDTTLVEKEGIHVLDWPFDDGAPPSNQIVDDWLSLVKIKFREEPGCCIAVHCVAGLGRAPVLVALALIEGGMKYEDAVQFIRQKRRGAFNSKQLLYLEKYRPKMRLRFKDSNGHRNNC


How the values were obtained:
3×FLAG-PRL-1 = target: T1, 3×FLAG-PRL-1; assay: immunoprecipitation from HEK293T lysate with nanobody-coupled Dynabeads, anti-FLAG blot
Procedure: (§1) HEK293T cells (˜20 million) were lysed for 30 minutes with intermittent vortexing in Pierce IP lysis buffer (Thermo 87788) supplemented with 1% protease inhibitor cocktail (IP buffer) at 500 μl per 10 million cells and spun at 12,000 rpm for 10 minutes at 4° C. to pellet cell debris. Protein concentration was quantified using the Quick Start Bradford 1× Dye Reagent (Biorad, 5000205). 150 μL of nanobody-coupled beads were washed in 1 mL of PBS for 5 minutes, precipitated, then equilibrated in 500 μL of IP buffer for 5 minutes. 2.5 mg of total extracted protein was added to the balanced nanobody-beads complex for incubation with rocking at 4° C. overnight. After washing the beads-protein complex in cold PBS four times, 50 μL 2× Laemmli Sample Buffer (Biorad, 161-0737) with 2-Mercaptoethanol (Fisher Scientific, 034461-100) was added to the beads, the mixture was boiled at 95° C. for 10 minutes, and the supernatant was collected for western blot analysis.
(§2) PRL-3 substrates remain largely undefined, in part due to insufficient tools for cell-based studies. The current commercially available PRL-3 antibodies have not been extensively validated for specificity towards PRL-3 over other PRLs. To address this, the ability of the anti-PRL-3 nanobodies to identify PRL-3 protein in cell lysate was tested. Anti-PRL-3 nanobodies were coupled to superparamagnetic Dynabeads® M-270 Epoxy beads and used in immunoprecipitation of HEK293T cells expressing either 3×FLAG-PRL-1, -2, or -3. All nanobodies selectively pulled-down 3×FLAG-PRL-3 over PRL-1 and PRL-2, as assessed by anti-FLAG immunoblot (FIGS. 7A and 9A-I). Some nanobodies were more specific to PRL-3 than others; nanobodies 4, 16, 19, and 84 pulled down small amounts of 3×FLAG-PRL-1 and/or PRL-2 (FIG. 3A). Successful nanobody coupling to Dynabeads was confirmed by the presence of 6×-His-tag in all samples (FIG. 3B). […] In total, anti-PRL-3 nanobodies 10, 26, and 91 can be used to specifically immunoprecipitate PRL-3, with no binding to PRL-1 or PRL-2.

3×FLAG-PRL-2 = target: T2, 3×FLAG-PRL-2; assay: as above
Procedure: as §1, §2

GFP-PRL-2 = target: T3, GFP-PRL-2; assay: immunofluorescence on fixed, permeabilized transfected HCT116 cells
Procedure: (§3) HCT116 colorectal cancer cells were transfected with A—CMV:GFP, CMV:GFP-PRL-1, CMV:GFP-PRL-2, or CMV:GFP-PRL-3 for 24 hours prior to cell fixation and permeabilization. Immunofluorescence assays were completed with 1:1000 1 mg/mL NB91 followed by 1:400 Alexa Fluor® 594-AffiniPure Goat Anti-Alpaca IgG, VHH domain and show nanobodies detect PRL-3 but not PRL-1 or PRL-2.
(§4) Transfected cells were plated at 5,000 cells per well in 96-well black glass bottomed plates (Cellvis, P96-1.5H-N). All solution exchanges and imaging occurred in the 96-well plate. 24 hours post-transfection cells were fixed in 4% paraformaldehyde (VWR, AAJ61899-AK) for 15 minutes, rinsed in PBS, permeabilized for 10 minutes in 1% 100× Triton (Sigma, X100-100), and rinsed in PBS. Blocking solution of 2% BSA in PBS was applied for 1 hour to all wells. All nanobodies were diluted to 1 mg/ml in blocking solution, and further diluted 1:1000 and incubated with the cells for 1 hour at room temperature followed by five PBS washes. Detection was carried out using an anti-alpaca IgG VHH conjugated to Alexa Fluor-594 (Jackson ImmunoResearch, 128-585-232) diluted 1:400 in blocking solution, and counterstained with Hoechst, 1:1000 dilution (ThermoFisher, H3570). All wells were washed in PBS five times prior to imaging. Images were acquired with a Nikon MR confocal using the 40× water objective. […]

GFP-PRL-1 = target: T4, GFP-PRL-1; assay: as above
Procedure: as §3, §4

Row | Binder | binding result (3×FLAG-PRL-1) | binding result (3×FLAG-PRL-2) | binding result (GFP-PRL-2) | binding result (GFP-PRL-1)
1 | NB26 (VHH, Alpaca nanobody, C-terminal 6xHis tag intact; also called nanobody 26; Nanobody 26) VHH: QVQLQESGGGLVQPGGSLKLSCVVTGLHYYTEGWFRQAPGKEREGVSCISSSDGRTDYIDSVKGRFTISEDNDNKTVYLQMNTLKPDDTGVYYCVAERGPRGSTWWETYDYWGQGTHVTVSS | no binding | no binding |  | 
2 | NB91 (VHH, Alpaca nanobody expressed from pMES4 in E. coli; also called nanobody 91; Nanobody 91) VHH: QVQLQESGGGLVQTGGSLRLSCAASQSTFNFDVMGWYRLAPGKQREFLTSITNGGNIYYADSVKGRFTIARDDSKTTMYLEMNSLKPEDTAVYTCYGQTHKPRVTTSWGQGTQVTVSS | no binding | no binding | no binding (tested: 1:1000 of 1 mg/mL) | no binding (tested: 1:1000 of 1 mg/mL)
3 | NB10 (VHH, Alpaca nanobody, C-terminal 6xHis tag intact; also called nanobody 10) VHH: QVQLQESGGGLVQTGGSLRLSCAASQSTFNFNVMGWYRLAPGKQREFLPSLTNGGNIYYADSVKGRFTIARDDSKTTTYLEMNSLKPEDTAVYTCYGQTHKPRVTTSWGQGTQVTVSS | no binding | no binding |  | 
